How the values were obtained:
Nrd1p-Nab3p = assay: Electromobility shift assay of Nrd1p-Nab3p binding to RNA substrates; set-up: species or system S. cerevisiae; conditions: EMSA as for wt RNA; not accurately determined due to poor fit of the curve; estimated by graphical interpolation; read-out: Affinity of Nrd1p-Nab3p for RNA, estimated by graphical interpolation
Description: Figure S6: Related to figure 6. A. Coomassie stained SDS-PAGE showing 10 pmol of each protein preparation used (50 pmol of the CID). Asterisks indicate proteolytic fragments of Air2p (deletions at the C-terminal unstructured region) and Nrd1-ΔCIDp (N-terminal truncation) that constitutes approximately 20% of the full-length protein. M: molecular weight marker. B. Analysis of Nrd1p-Nab3p binding to either the wt RNA, containing motifs required for high-affinity RNA-binding (open boxes), or a mutant variant harboring point mutations designed to disrupt all motifs (mutations underlined). The plots correspond to affinity curves generated by the Prism software from values derived from three independent electromobility shift assays (see supplemental experimental procedures). Bars denote standard deviations.
The affinity for the mutant RNA could not be accurately determined due to the poor fit of the curve but it was estimated to be approximately 45 nM by graphical interpolation. C. Polyadenylation assays using the wt and the mutant RNAs as substrates to test whether high-affinity RNA-binding by Nrd1p-Nab3p is required for stimulation of polyadenylation. Panels correspond to different gels.
(1 picture or pasted object on this page, not shown here) […]
for Nrd1 and Nab3) and stored at -80 °C. […]
average of three measurements. The experimental binding isotherms were analyzed by non- […]

[1] = target: T1, Nrd1 (rNrd1);Nab3 (rNab3) (Saccharomyces cerevisiae;Saccharomyces …, UniProt P53617;P38996 1-575;1-802, |); assay: EMSA; Kd value not in the material (legend line truncated); EMSA samples processed as described for the polyadenylation assays; buffer, salt, pH and temperature not in the material; n=3, single-site fit (Prism); conditions: protein: recombinant;recombinant; tags: ;C-terminal TEV-His6 (from pDL469 primers); copies: 1;1; single strand
T1 sequence 1: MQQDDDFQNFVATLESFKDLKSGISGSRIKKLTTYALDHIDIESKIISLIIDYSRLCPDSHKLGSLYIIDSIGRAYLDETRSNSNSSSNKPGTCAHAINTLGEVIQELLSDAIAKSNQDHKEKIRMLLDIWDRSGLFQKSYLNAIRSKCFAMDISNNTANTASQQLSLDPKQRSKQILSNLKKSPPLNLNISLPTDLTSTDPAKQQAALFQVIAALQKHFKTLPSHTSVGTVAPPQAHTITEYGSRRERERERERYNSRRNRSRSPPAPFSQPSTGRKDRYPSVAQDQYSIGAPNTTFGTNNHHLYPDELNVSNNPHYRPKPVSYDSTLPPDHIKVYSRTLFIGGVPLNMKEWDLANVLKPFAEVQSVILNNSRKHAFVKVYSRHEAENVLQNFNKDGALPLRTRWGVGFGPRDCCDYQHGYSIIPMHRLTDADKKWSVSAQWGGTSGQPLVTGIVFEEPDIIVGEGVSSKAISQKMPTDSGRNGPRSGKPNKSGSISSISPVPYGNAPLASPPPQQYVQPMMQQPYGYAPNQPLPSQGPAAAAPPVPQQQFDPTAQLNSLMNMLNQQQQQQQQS
T1 sequence 2: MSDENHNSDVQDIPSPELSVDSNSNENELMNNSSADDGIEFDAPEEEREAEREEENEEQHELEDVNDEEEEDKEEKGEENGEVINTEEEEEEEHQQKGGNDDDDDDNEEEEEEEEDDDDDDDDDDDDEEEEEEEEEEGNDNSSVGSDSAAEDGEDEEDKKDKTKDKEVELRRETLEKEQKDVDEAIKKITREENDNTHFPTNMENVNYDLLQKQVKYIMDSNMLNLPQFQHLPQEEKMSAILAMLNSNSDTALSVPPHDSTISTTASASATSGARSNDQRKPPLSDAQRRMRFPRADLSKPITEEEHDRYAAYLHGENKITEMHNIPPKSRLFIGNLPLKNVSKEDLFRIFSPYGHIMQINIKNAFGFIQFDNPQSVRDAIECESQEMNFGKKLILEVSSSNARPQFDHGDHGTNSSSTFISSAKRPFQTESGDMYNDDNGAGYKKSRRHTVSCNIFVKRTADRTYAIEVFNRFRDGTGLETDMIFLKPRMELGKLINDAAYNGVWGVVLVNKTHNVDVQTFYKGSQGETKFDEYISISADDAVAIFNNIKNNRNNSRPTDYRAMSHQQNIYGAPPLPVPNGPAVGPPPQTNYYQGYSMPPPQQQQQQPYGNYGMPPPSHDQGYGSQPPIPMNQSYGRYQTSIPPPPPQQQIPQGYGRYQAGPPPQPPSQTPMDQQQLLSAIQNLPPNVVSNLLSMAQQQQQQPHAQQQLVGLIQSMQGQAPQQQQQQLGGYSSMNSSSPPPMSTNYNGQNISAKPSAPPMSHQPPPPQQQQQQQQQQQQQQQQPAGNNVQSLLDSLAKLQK

[2] = target: T1, Nrd1 (rNrd1);Nab3 (rNab3); assay: EMSA; EMSA samples processed as described for the polyadenylation assays; buffer, salt, pH and temperature not in the material; n=3, single-site fit (Prism); conditions: protein: recombinant;recombinant; tags: ;C-terminal TEV-His6 (from pDL469 primers); copies: 1;1; single strand
Trf4p NIM peptide = assay: Equilibrium binding of Nrd1p CID mutants to the NIM peptide by fluorescence anisotropy (FA); set-up: species or system S. cerevisiae; conditions: Nrd1p CID variant vs wild-type
Description: Equilibrium binding experiments with both the protein and peptide mutants (in red and blue, respectively) were monitored by FA (for the binding isotherms, see Figure S5).
The importance of these contacts was further tested in a quantitative in vitro binding assay using FA.

Which Kd (Nrd1p-Nab3p) does the source give for “mutant RNA: mutant RNA with point mutations disrupting all motifs: GAAACGCAAUGAAUUAAGACUCGAUACAUUGCAAUUAGCU (RNA, backbone not given here)” here?
The Kd was roughly 0.045 µM.

B1: Mutant RNA (DL2975) (ssRNA)
RNA: GAAACGCAAUGAAUUAAGACUCGAUACAUUGCAAUUAGCU
B1 was tested. Which “fold loss of affinity vs wt RNA” value [1] did it give?
Its value is ~20 fold lower affinity than wt RNA.

B2: Wt RNA (DL2974) (ssRNA)
RNA: GAAACGUAAUGAAUUAAGUCUUGAUAUAUAACAAUUAGCU
How did the Kd [2] turn out when B2 was run?
Its Kd is 0.0024 ± 0.0003 µM.

B3: I130K (protein)
chain: MQQDDDFQNFVATLESFKDLKSGISGSRIKKLTTYALDHIDIESKIISLIIDYSRLCPDSHKLGSLYIIDSIGRAYLDETRSNSNSSSNKPGTCAHAINTLGEVIQELLSDAIAKSNQDHKEKIRMLLDKWDRSGLFQKSYLNAIRSKCFAMD
With B3 as the molecule, how does the “Decrease in binding affinity for NIM relative to wild-type CID (fold)” value (Trf4p NIM peptide) read?
Its value is 20 fold.
